Where a chain is given by its changes, count along the chain named.
B1: 9F10 human-rabbit chimeric anti-CD40 antibody (antibody, human IgG1, V domains shown)
VH: QSVKESEGGLFKPTDTLTLTCTVSGFSLSSYDMSWVRQAPGNGLEWIGAIGGAGGTYYASWAKSRSTITRNTNLNTVTLKMTSLTAADTATYFCTRGWTRLDLWGQGTLVTVSS
VL: DIVLTQTESPVSGPVGGTVTINCQASEDISSNLAWYQQKPGQPPKLLIYAASNLASGVPSRFKGSGSGTEFTLTISDLECADAATYYCQGAYWSSTSYFGNGFGGGTQVVVK
B2: 10A4 human-rabbit chimeric anti-CD40 antibody (antibody, human IgG1, V domains shown)
VH: QSLEESGGRLVTPGGSLTLTCTVSGIDLSRNAISWVRQSPGNGLEWIGGIGSSGSAYYASWAKSRSTITRDTNLNTVTLKMTSLTAADTATYFCARDGYAGSSWGIYYGMDPWGPGTLVTVSS
VL: AIEMTQSPPSLSASVGETVRIRCLASEDIYRGISWYQQKPGKPPTLLIYGASTLQSGVPPRFSGSGSGTDYTLTIGGVQAEDAATYYCLGGHSYSSAGLTFGAGTKVEIK
B3: 3F6 human-rabbit chimeric anti-CD40 antibody (antibody, human IgG1, V domains shown)
VH: QSVKESEGGLFKPTDTLTLTCTVSGFSLSSYAISWVRQAPGNGLEWIGAIDRYGTTYYATWAKSRSTITRNTNENTVTLKMTSLTAADTATYFCARGPWYYGGDVAWTGSFDPWGPGTLVTVSS
VL: AQVLTQTASPVSAAVGGTVTISCQSSQSVANNDFLSWYQQKPGQPPKLLIYGASTLASGVPSRFRGNGSGTQFTLTITGMQCDDAATYFCTGGYAGPIYIFGGGTEVVVK
B4: 4D4 human-rabbit chimeric anti-CD40 antibody (antibody, human IgG1, V domains shown)
VH: QSVKESEGGLFKPTDTLTLTCTVSGFSLSSYGVSWVRQAPGNGLEWIGGIGSDGSAYYASWAKSRATITRDTNLKTVTLEMTSLTAADTATYFCARGGITVYAIWGPGTLVTVSS
VL: AFELTQTPSPVSAAVGGTVTIKCQASQSISNGLAWYQQKPGQPPKVLIVGASNLASGVSSRFKGSGSGTEFTLSISDLECADGATYYCQSYFSSSSTVFGGGTEVVVK
B5: 4F6 human-rabbit chimeric anti-CD40 antibody (antibody, human IgG1, V domains shown)
VH: B4 VH with T14A, G25R, S34T, G49A, D53T, A66S, K75N, E80K, V101A
VL: AFELTQTPSSVEAAVGGTVTIKCQASQSISNGLAWYQQKPGQPPKLLIAGASNLASGVSSRFKGSGSGIEFILTISDLECADAATYYCQSYYNSFTTVFGGGTEVVVK
B6: 5A9 human-rabbit chimeric anti-CD40 antibody (antibody, human IgG1, V domains shown)
VH: B1 VH with V23A, G25R, V77L, T95A
VL: B1 VL with E8A, P14A, A25S, A34S, A91G, S95G, T96I, Y98N, Q108E
B7: 5B8 human-rabbit chimeric anti-CD40 antibody (antibody, human IgG1, V domains shown)
VH: B4 VH with S29N, G49A, D53S, K63R, A66S, K75N, E80K
VL: AFELTQTPSPVSAAVGGTVTINCQASEDITNGIAWYQQKPGQPPKLLIAGASNLASGVSSRFKGSGSGTEFTLTISDLECDDAATYYCQSYYSSSYTIFGGGTEVVVK
B8: 8C12 human-rabbit chimeric anti-CD40 antibody (antibody, human IgG1, V domains shown)
VH: B4 VH with A86V
VL: B4 VL
B9: 8G10 human-rabbit chimeric anti-CD40 antibody (antibody, human IgG1, V domains shown)
VH: B4 VH with D15A, N42S, G51A, D53T, S55T, A56T, S60N, A66S, E80K, V101A
VL: B5 VL with S30T, I69T, I72T, N93D, F95S, T96S
B10: humanized anti-CD40 antibody 2F12-L2H1 (antibody, human IgG1, V domains shown)
VH: EVTLKESGPVLVKPTETLTLTCTVSGFSLSSYGVSWIRQPPGKALEWLAGIGSDGSAYYASWAKSRLTISRDTNLKQVVLTMTNMDPVDTATYYCARGGITVYAMWGQGTLVTVSS
VL: AFQLTQSPSSLSASVGDRVTITCQASQSISQGLAWYQQKPGKPPKLLIVGASNLASGVPSRFSGSGSGTDFTLTISSLQPEDFATYYCQSYFSSSSTVFGGGTKVEIK
B11: humanized anti-CD40 antibody 2F12-L1H1 (antibody, human IgG1, V domains shown)
VH: B10 VH
VL: B10 VL with Q31N, G32V
B12: humanized anti-CD40 antibody 2F12-L1H2 (antibody, human IgG1, V domains shown)
VH: B10 VH with L4V, A49G
VL: B10 VL with Q31N, G32V
B13: humanized anti-CD40 antibody 2F12-L2H2 (antibody, human IgG1, V domains shown)
VH: B10 VH with L4V, A49G
VL: B10 VL
B14: humanized anti-CD40 antibody 2F12-L3H1 (antibody, human IgG1, V domains shown)
VH: B10 VH
VL: B10 VL with Q31S
B15: humanized anti-CD40 antibody 2F12-L3H2 (antibody, human IgG1, V domains shown)
VH: B10 VH with L4V, A49G
VL: B10 VL with Q31S
B16: humanized anti-CD40 antibody 2F12-L4H1 (antibody, human IgG1, V domains shown)
VH: B10 VH
VL: B10 VL with Q31T
B17: humanized anti-CD40 antibody 9E6-L2H1 (antibody, human IgG1, V domains shown)
VH: EVQLQESGPGLVKPSDTLSLTCTVSGFSLSSYDMSWIRQPPGKGLEWIGAIGGAGGTYYASWAKSRVTISVDTSLNQVSLKLSSVTAADTAVYYCARGWTRLDLWGQGTLVTVSS
VL: DIQLTQSPSFLSASVGDRVTITCQASEDISSNLAWYQQKPGKPPKLLIFPASNLASGVPSRFSGSGSGTEFTLTISSLQPEDFATYYCQGGYWTSTSNFGSGFGGGTKVEIK
B18: humanized anti-CD40 antibody 9E6-L1H1 (antibody, human IgG1, V domains shown)
VH: B17 VH
VL: B17 VL with S101N, G102V
B19: humanized anti-CD40 antibody 9E6-L1H2 (antibody, human IgG1, V domains shown)
VH: B17 VH with E1Q, L4V
VL: B17 VL with S101N, G102V
B20: humanized anti-CD40 antibody 9E6-L2H2 (antibody, human IgG1, V domains shown)
VH: B17 VH with E1Q, L4V
VL: B17 VL
B21: humanized anti-CD40 antibody 9E6-L3H1 (antibody, human IgG1, V domains shown)
VH: B17 VH
VL: B17 VL with S101T
B22: humanized anti-CD40 antibody 9E6-L3H2 (antibody, human IgG1, V domains shown)
VH: B17 VH with E1Q, L4V
VL: B17 VL with S101T
B23: humanized anti-CD40 antibody 9E6-L4H1 (antibody, human IgG1, V domains shown)
VH: B17 VH
VL: B17 VL with S101Q

target: T1, human CD40 on the cell surface (human, UniProt P25942 21-277); experiment: cell-based or functional assay
T1 sequence (P25942 21-277): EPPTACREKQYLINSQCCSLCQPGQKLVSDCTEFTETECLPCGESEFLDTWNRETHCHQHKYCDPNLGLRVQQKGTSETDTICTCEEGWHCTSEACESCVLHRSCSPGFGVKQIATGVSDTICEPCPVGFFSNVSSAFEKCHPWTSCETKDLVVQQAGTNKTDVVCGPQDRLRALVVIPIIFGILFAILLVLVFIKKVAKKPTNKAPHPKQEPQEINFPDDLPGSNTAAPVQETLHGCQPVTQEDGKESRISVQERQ

| reporter gene cell activity IC50 (HEK-Blue CD40L cells, SEAP) | Binder |
| --- | --- |
| 217 pM | B1 |
| 217 pM | B2 |
| 378 pM | B3 |
| 197 pM | B4 |
| 182 pM | B5 |
| 317 pM | B6 |
| 203 pM | B7 |
| 173 pM | B8 |
| 156 pM | B9 |

target: T1, human CD40 on the cell surface; experiment: flow cytometry on Raji cells, AF647 anti-human IgG detection
Procedure: Raji cells are of a tumor cell line that overexpresses human CD40. 2E5 Raji cells were inoculated onto a 96-well plate. 100 μL of a test antibody was added, with the highest final concentration of 100 nM. The antibody was 5-fold diluted to 8 concentrations. The plate was incubated at 4° C. for 1 h. […] The plate was incubated at 4° C. for 30 min. The plate was washed once with wash buffer, and fluorescence intensity was measured using a flow cytometer. The binding EC₅₀ values of the anti-CD40 antibodies for CD40 were calculated. The anti-CD40 antagonistic antibody CFZ533 (i.e., iscalimab, Nova) was used as a positive control, and the heavy and light chain variable region sequences were derived from sequence 5 and sequence 2 of U.S. Pat. No. 8,277,810B, respectively.

| EC50 | Binder |
| --- | --- |
| 467 pM | B2 |
| 1510 pM | B3 |
| 258 pM | B5 |
| 671 pM | B6 |
| 435 pM | B7 |

target: T1, human CD40 on the cell surface; experiment: flow cytometry on Raji cells, Alexa Fluor 488 anti-human IgG (H+L) detection
Procedure: Raji cells were plated at 1.5E5/well, and various concentrations of CD40 antagonistic antibodies were added. The plate was incubated at 4° C. for 1 h. After two washes with FACS buffer (PBS+2% FBS), a secondary antibody (Alexa Flour488 conjugated anti-human IgG (H+L) antibody) was added, and the plate was incubated at 4° C. for 0.5 h.
After two washes with FACS buffer, the fluorescence intensity on the cell surface was measured by flow cytometry (BD FACS Celesta).

| EC50 | Binder |
| --- | --- |
| 516 pM | B10 |
| 549 pM | B11 |
| 469 pM | B12 |
| 516 pM | B13 |
| 456 pM | B14 |
| 762 pM | B15 |
| 508 pM | B16 |
| 1990 pM | B17 |
| 1080 pM | B18 |
| 1050 pM | B19 |
| 1660 pM | B20 |
| 1060 pM | B21 |
| 1150 pM | B22 |
| 928 pM | B23 |
